Changes are numbered by the printed parent chain.
Legend:
GFP-TONSL W563A = molecular target: T1, GFP-TONSL W563A (Homo sapiens, UniProt Q96HA7 1-1378); experiment: GFP immunoprecipitation of GFP-TONSL from transfected HeLa S3 cells, western blot (co-IP; association may be indirect)
T1 construct: also called TONSL W563A / GFP; not shown: N-terminal GFP tag
T1 sequence: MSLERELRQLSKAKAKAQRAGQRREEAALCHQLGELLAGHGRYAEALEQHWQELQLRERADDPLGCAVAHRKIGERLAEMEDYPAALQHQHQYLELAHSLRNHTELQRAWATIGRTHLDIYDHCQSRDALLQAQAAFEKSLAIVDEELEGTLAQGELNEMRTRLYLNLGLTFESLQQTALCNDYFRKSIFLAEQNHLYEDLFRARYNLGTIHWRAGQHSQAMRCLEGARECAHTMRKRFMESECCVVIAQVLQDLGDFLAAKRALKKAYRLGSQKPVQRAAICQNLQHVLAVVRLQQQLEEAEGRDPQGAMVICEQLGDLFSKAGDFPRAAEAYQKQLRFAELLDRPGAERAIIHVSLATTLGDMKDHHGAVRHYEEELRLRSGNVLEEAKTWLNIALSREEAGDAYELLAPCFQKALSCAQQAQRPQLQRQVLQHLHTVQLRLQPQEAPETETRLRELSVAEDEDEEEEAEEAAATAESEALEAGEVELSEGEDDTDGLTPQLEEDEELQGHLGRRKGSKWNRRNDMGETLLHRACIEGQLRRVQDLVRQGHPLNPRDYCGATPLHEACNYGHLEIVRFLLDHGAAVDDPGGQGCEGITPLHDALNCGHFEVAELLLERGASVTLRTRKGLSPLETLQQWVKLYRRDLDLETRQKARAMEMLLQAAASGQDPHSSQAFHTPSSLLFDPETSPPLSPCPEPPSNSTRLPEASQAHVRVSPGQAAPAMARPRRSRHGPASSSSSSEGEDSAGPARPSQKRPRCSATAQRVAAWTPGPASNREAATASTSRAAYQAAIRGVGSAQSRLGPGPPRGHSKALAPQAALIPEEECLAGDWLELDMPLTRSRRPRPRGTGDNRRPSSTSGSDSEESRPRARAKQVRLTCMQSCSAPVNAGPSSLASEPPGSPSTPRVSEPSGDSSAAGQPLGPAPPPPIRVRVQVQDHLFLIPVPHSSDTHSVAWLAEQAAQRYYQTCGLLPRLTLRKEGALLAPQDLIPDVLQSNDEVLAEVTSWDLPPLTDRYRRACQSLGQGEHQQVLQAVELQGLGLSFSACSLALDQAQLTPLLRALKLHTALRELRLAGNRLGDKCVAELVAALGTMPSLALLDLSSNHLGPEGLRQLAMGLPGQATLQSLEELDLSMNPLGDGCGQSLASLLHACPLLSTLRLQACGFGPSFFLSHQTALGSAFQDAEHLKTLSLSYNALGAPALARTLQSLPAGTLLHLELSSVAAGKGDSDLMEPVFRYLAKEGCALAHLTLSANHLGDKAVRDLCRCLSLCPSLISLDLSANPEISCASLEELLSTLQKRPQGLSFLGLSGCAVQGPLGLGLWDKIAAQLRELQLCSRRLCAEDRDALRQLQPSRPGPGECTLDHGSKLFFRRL

[1] = molecular target: T2, GFP-TONSL wild type (full length) (Homo sapiens, UniProt Q96HA7 1-1378); experiment: as above
T2 construct: Expressed in U-2-OS or HeLa S3 cells; assayed in cell extracts; also called GFP-TONSL WT; TONSL WT / GFP; not shown: N-terminal GFP tag
T2 sequence: T1 sequence with A563W

binding result (GFP-TONSL W563A): binds | binding result [1]: binds
B1: MMS22L (endogenous, in cell extracts) (other, UniProt Q6ZRQ5 1-1243, looked up)
chain: MENCSAASTFLTDSLELELGTEWCKPPYFSCAVDNRGGGKHFSGESYLCSGALKRLILNLDPLPTNFEEDTLEIFGIQWVTETALVNSSRELFHLFRQQLYNLETLLQSSCDFGKVSTLHCKADNIRQQCVLFLHYVKVFIFRYLKVQNAESHVPVHPYEALEAQLPSVLIDELHGLLLYIGHLSELPSVNIGAFVNQNQIKLFPPSWHLLHLHLDIHWLVLEILYMLGEKLKQVVYGHQFMNLASDNLTNISLFEEHCETLLCDLISLSLNRYDKVRSSESLMSDQCPCLCIKELWVLLIHLLDHRSKWFVSESFWNWLNKLLKTLLEKSSDRRRSSMPVIQSRDPLGFSWWIITHVASFYKFDRHGVPDEMRKVESNWNFVEELLKKSISVQGVILEEQLRMYLHCCLTLCDFWEPNIAIVTILWEYYSKNLNSSFSISWLPFKGLANTMKSPLSMLEMVKTCCCDKQDQELYKSSSSYTIFLCILAKVVKKAMKSNGPHPWKQVKGRIYSKFHQKRMEELTEVGLQNFFSLFLLLAAVAEVEDVASHVLDLLNFLKPAFVTSQRALIWKGHMAFLLMYAQKNLDIGVLAEKFSCAFREKAKEFLVSKNEEMVQRQTIWTLLSIYIDGVQEVFETSYCLYPSHEKLLNDGFSMLLRACRESELRTVLSFLQAVLARIRSMHQQLCQELQRDNVDLFVQSSLSAKERHLAAVASALWRHFFSFLKSQRMSQVVPFSQLADAAADFTLLAMDMPSTAPSDFQPQPVISIIQLFGWDDIICPQVVARYLSHVLQNSTLCEALSHSGYVSFQALTVRSWIRCVLQMYIKNLSGPDDLLIDKNLEEAVEKEYMKQLVKLTRLLFNLSEVKSIFSKAQVEYLSISEDPKKALVRFFEAVGVTYGNVQTLSDKSAMVTKSLEYLGEVLKYIKPYLGKKVFSAGLQLTYGMMGILVKSWAQIFATSKAQKLLFRIIDCLLLPHAVLQQEKELPAPMLSAIQKSLPLYLQGMCIVCCQSQNPNAYLNQLLGNVIEQYIGRFLPASPYVSDLGQHPVLLALRNTATIPPISSLKKCIVQVIRKSYLEYKGSSPPPRLASILAFILQLFKETNTDIYEVELLLPGILKCLVLVSEPQVKRLATENLQYMVKACQVGSEEEPSSQLTSVFRQFIQDYGMRYYYQVYSILETVATLDQQVVIHLISTLTQSLKDSEQKWGLGRNIAQREAYSKLLSHLGQMGQDEMQRLENDNT

Source: patent US20200148732A1 (UNIVERSITY OF COPENHAGEN, published 2020)
